Results taken from US20060045883A1 (published 2006).

Key:
[1] = target: T1, HLA-A2.1 heavy chain with I125-labeled beta2-microglobulin (heterotrimer dissociation assay) (human, I^125-labeled); assay: I125-beta2-microglobulin dissociation assay
T1 construct: T1/2 is the half-time of dissociation of labeled beta2-microglobulin from the heavy chain/peptide/beta2-microglobulin complex; also called HLA-A2.1 heavy chain / beta2-microglobulin complex

[2] = target: T2, HLA-A2.1 (HLA-A*0201) on the surface of T2 cells (human); assay: T2 stabilisation assay, indirect flow cytometry with BB7.2 (FIG. 34)
T2 construct: also called HLA-A2 on T2

[3] = target: T2, HLA-A2.1 (HLA-A*0201) on the surface of …; assay: T2 stabilisation assay, flow cytometry
[4] = target: T1, HLA-A2.1 heavy chain with I125-labeled …; assay: dissociation of I125-labeled beta2-microglobulin from the heavy chain/peptide/beta2-microglobulin complex, HPLC gel filtration

Row | Binder | binding result [1] | binding result [2] | binding result [3] | T1/2 [4]
1 | SLWRRPFNV [MY1 peptide of myeloperoxidase] | binds | binds | – | –
2 | KLNDILLIQL (also called PR71) [PR7I peptide of proteinase 3 (amino acid 115-124, Ile 119 variant)] | – | – | binds | –
3 | KLNDVLLIQL [PR7V peptide of proteinase 3 (amino acid 115-124, Val 119 variant)] | – | – | binds | –
4 | LIQPFMFRL [MY5 peptide of myeloperoxidase] | binds | binds | – | –
5 | RLFPDFFTRV [PR2 peptide of proteinase 3] | – | – | – | 2.33 h
6 | RLFEQVMRI [MY4 peptide of myeloperoxidase] | binds | binds | – | –
7 | VLQELNVTV (Synthetic peptide, minimum 95% purity) [PR1 (aa 169-177) peptide of proteinase 3] | – | – | – | 24.3 h
8 | KLLLALAGL [MY2 peptide of myeloperoxidase] | binds | binds | – | –
9 | LLSYFKQPV [MY3 peptide of myeloperoxidase] | binds | binds | – | –
